Results as given in article PMC12360793.

Tests used:
[1] = target: dimeric P.dav ACE2 ectodomain (cryo-EM sample with MOW15–22 RBD) (P.dav (a Pteronotus bat)); test: cryo-EM structure
[2] = target: biotinylated monomeric MOW15–22 RBD (MOW15–22 (bat MERSr-CoV sampled in Pipistrellus nathusii)); test: BLI
[3] = target: biotinylated monomeric PnNL2018B RBD (PnNL2018B (bat MERSr-CoV sampled in Pipistrellus nathusii)); test: BLI

Substance	stoichiometry N (RBD per ACE2 dimer) [1]	Kd [2] [nM]	Kd [3] [nM]
MOW15–22 RBD (cryo-EM sample with P.dav ACE2) (from UniProt Q56H28 360-611) (domain or fragment)	< 1		
monomeric P.dav ACE2 ectodomain (residues 17–613, avi-His8) (from UniProt Q56H28 17-613) (domain or fragment)		1070	
monomeric P.nat ACE2 ectodomain (residues 17–614, avi-His8) (domain or fragment)		1450	
dimeric P.dav ACE2 ectodomain (residues 17–728, avi-His8) (from UniProt Q56H28 17-728) (domain or fragment)		6.38	
dimeric P.nat ACE2 ectodomain (residues 17–729, avi-His8) (domain or fragment)		12.8	897
